Results published in the supplement of paper PMC7125110.
± gives the standard error. For part of these data: Fewer inactive variants are shown than the library holds.

B1: glmS ribozyme (parent)
chain: AUAAAAGCGCCAGAACUACAGAAAUGUAGUUGACGAGGAGGAGGUUUAUCGAAUUUUCGGCGGAUGCCUCCAAA

Columns and labels:
Settings in all cases: with glucosamine-6-phosphate
glucosamine-6-phosphate [1] = variants of: B1; experiment: kcat; higher = faster cleavage; RNA array
In short: (§1)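 Glucosamine-6-phosphate in HEPES/KCl/Mg(OAc)2 buffer, at 40 μM to 10 mM, was flowed over barcoded ribozyme variants transcribed in situ by E. coli RNA polymerase on sequenced MiSeq chips. Tracking was through a hybridised Cy3 probe at 37 °C. kobs, kcat and KM came from exponential decay fits and weighted Michaelis–Menten fits of normalised per-tile medians.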

glucosamine-6-phosphate [2] = variants of: B1; experiment: KM; higher = weaker cofactor use; RNA array
In short: as §1

glucosamine-6-phosphate [3] = variants of: B1; experiment: self-cleavage kobs at 10000 uM GlcN6P; higher = faster cleavage; RNA array
In short: as §1

glucosamine-6-phosphate [4] = variants of: B1; experiment: self-cleavage kobs at 640 uM GlcN6P; higher = faster cleavage; RNA array
In short: as §1

glucosamine-6-phosphate [5] = variants of: B1; experiment: self-cleavage kobs at 2500 uM GlcN6P; higher = faster cleavage; RNA array
In short: as §1

glucosamine-6-phosphate [6] = variants of: B1; experiment: self-cleavage kobs at 160 uM GlcN6P; higher = faster cleavage; RNA array
In short: as §1

glucosamine-6-phosphate [7] = variants of: B1; experiment: self-cleavage kobs at 40 uM GlcN6P; higher = faster cleavage; RNA array
In short: as §1

Row | Variant | kcat (glucosamine-6-phosphate [1]) | KM (glucosamine-6-phosphate [2]) | self-cleavage kobs at 10000 uM GlcN6P (glucosamine-6-phosphate [3]) | self-cleavage kobs at 640 uM GlcN6P (glucosamine-6-phosphate [4]) | self-cleavage kobs at 2500 uM GlcN6P (glucosamine-6-phosphate [5]) | self-cleavage kobs at 160 uM GlcN6P (glucosamine-6-phosphate [6]) | self-cleavage kobs at 40 uM GlcN6P (glucosamine-6-phosphate [7])
1 | A6C U31G | 2.39e-05 ± 9.7e-07 s⁻¹ | 3.73 ± 0.51 mM | 1.74e-05 ± 5.6e-06 s⁻¹ |  |  |  | 
2 | U47C U49G | 0.000198 ± 1.4e-05 s⁻¹ | 1.24 ± 0.22 mM | 0.000169 ± 3.6e-05 s⁻¹ | 6.46e-05 ± 1.7e-05 s⁻¹ | 0.000146 ± 3.2e-05 s⁻¹ |  | 
3 | C10G U47G G60C | 0.000977 ± 0.00037 s⁻¹ |  | 0.0011 ± 0.00032 s⁻¹ | 0.000256 ± 7.5e-05 s⁻¹ | 0.000552 ± 0.00013 s⁻¹ | 0.000156 ± 5e-05 s⁻¹ | 
4 | A12G A14U C58A G66C | 0.000245 ± 7.5e-05 s⁻¹ |  | 8.77e-05 ± 2.7e-05 s⁻¹ |  |  |  | 
5 | G13U C68A C70G | 2.66e-05 ± 2.1e-06 s⁻¹ | 0.139 ± 0.065 mM | < 1e-05 s⁻¹ |  |  |  | < 1e-05 s⁻¹
6 | G37A C70U | 0.00286 ± 0.00083 s⁻¹ | 3.8 ± 1.5 mM | 0.00199 ± 0.00021 s⁻¹ | 0.000383 ± 4.9e-05 s⁻¹ | 0.0018 ± 0.00029 s⁻¹ | 9.55e-05 ± 1.5e-05 s⁻¹ | 4.27e-05 ± 6.4e-06 s⁻¹
7 | G37A C70A | 1.38e-05 ± 4.2e-06 s⁻¹ |  |  |  |  |  | < 1e-05 s⁻¹
8 | G32C C58A | 0.000602 ± 8.9e-05 s⁻¹ | 8.22 ± 1.7 mM | 0.000333 ± 4.8e-05 s⁻¹ | 4.35e-05 ± 8.2e-06 s⁻¹ | 0.000139 ± 1.7e-05 s⁻¹ |  | 
9 | A52G G59A | < 1e-05 s⁻¹ |  |  |  |  |  | < 1e-05 s⁻¹
10 | C67G U69G | < 1e-05 s⁻¹ |  | < 1e-05 s⁻¹ |  |  | < 1e-05 s⁻¹ | 
11 | C16U C61G C67A | 2.72e-05 ± 6.4e-06 s⁻¹ |  |  |  |  |  | 
12 | G37A A53U C71U | 0.00135 ± 0.00053 s⁻¹ |  | 0.00165 ± 0.00033 s⁻¹ | 0.000464 ± 8.3e-05 s⁻¹ | 0.000695 ± 0.00015 s⁻¹ |  | 7.9e-05 ± 3.8e-05 s⁻¹
13 | A39U G40A C67A | 0.000278 ± 2.3e-05 s⁻¹ | 0.76 ± 0.19 mM | 0.000247 ± 5e-05 s⁻¹ | 0.000124 ± 3.1e-05 s⁻¹ | 0.000245 ± 6.5e-05 s⁻¹ |  | 
14 | A53C G60A | 2.08e-05 ± 2.9e-06 s⁻¹ | 7.11 ± 2.3 mM |  |  |  | < 1e-05 s⁻¹ | < 1e-05 s⁻¹
15 | A39U A42C | 0.000556 ± 3.1e-05 s⁻¹ | 3.03 ± 0.29 mM | 0.000419 ± 3.9e-05 s⁻¹ | 9.53e-05 ± 1.1e-05 s⁻¹ | 0.000273 ± 3.6e-05 s⁻¹ | 2.58e-05 ± 7.6e-06 s⁻¹ | 
16 | U31G A64C | 2.01e-05 ± 3.9e-06 s⁻¹ |  |  |  |  |  | 
17 | G40C U56C | 6.61e-05 ± 9.2e-06 s⁻¹ |  | 5.45e-05 ± 8.6e-06 s⁻¹ |  | 4.67e-05 ± 2e-05 s⁻¹ | < 1e-05 s⁻¹ | < 1e-05 s⁻¹
18 | U30G G32A | 0.00542 ± 0.0022 s⁻¹ | 4.72 ± 2.3 mM | 0.00438 ± 0.00065 s⁻¹ | 0.000709 ± 9.2e-05 s⁻¹ | 0.00123 ± 0.0003 s⁻¹ | 0.00017 ± 2.3e-05 s⁻¹ | 5.91e-05 ± 1.1e-05 s⁻¹
